Paper PMC11846896, “Phage parasites targeting phage homologous recombinases provide antiviral immunity” (Nature Communications, 2025)
One block for each compound: values may come before it.

Columns and labels:
Stl2-Sak4_52A complex = target: T1, Stl2-Sak4_52A complex (Staphylococcus phage 52A, UniProt Q4ZAS5); assay: cryo-EM structure of the complex ([…] Å); format: binding; settings: 2 mM ATPγS, 20 mM Tris pH 7.6, 100 mM NaCl, 1 mM DTT, 37 °C 10 min, Stl2 1:1; site at Sak4_52A protomer interface (Lys41, Thr42, Tyr216 of one; Lys229, Arg231, His232 of the next)
T1 construct: both from E. coli BL21, mixed 1:1; with SaPI2 transcriptional repressor Stl (Staphylococcus aureus)

[1] = tested on: Stl2-ΔCTD (Staphylococcus aureus pathogenicity island SaPI2); assay: EMSA; settings: EMSA: 20 mM Tris-HCl pH 7.0, 100 mM NaCl, 5% glycerol, 50 ng/µl BSA, 1 ng/µl salmon sperm DNA, 5 mM DTT, 2 nM FAM-DNA, room temperature 30 min; Stl2 + 5 mM …
[2] = target: Sak80α, full-length, untagged, co-expressed with Stl2 from pETDuet-1 (phage 80α (Staphylococcus aureus phage)); assay: cryo-EM structure; Stl2-Sak80α complex co-expressed from pETDuet-1 and co-purified, third elution peak of Superose 6, 1.5 mg/ml; D1 symmetry
[3] = target: Sak80αΔCTD (truncated Sak80α with its CTD removed) (phage 80α (Staphylococcus aureus phage)); assay: cryo-EM structure; Sak80αΔCTD at 1.5 mg/ml in 20 mM Tris-HCl pH 7.6, 100 mM NaCl, 1 mM DTT; C18 symmetry
[4] = target: Stl2 (SaPI2-encoded transcriptional repressor Stl), wild type, C-terminally histidine tagged (Staphylococcus aureus (SaPI2)); assay: mass photometry; single proteins; diluted to 50 to 100 nM in 20 mM Tris pH 8.0, 0.5 mM EDTA, 200 mM NaCl, 2 mM DTT; self-association (dimer and large oligomers)

T1 sequence (A0FIL5 entry or part of it): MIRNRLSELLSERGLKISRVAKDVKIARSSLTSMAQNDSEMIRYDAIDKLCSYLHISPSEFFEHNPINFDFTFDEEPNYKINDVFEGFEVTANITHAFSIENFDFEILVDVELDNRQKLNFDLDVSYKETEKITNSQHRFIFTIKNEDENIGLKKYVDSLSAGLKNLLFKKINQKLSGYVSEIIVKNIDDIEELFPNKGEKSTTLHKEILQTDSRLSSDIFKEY
T1 sequence (Q4ZAS5 entry or part of it): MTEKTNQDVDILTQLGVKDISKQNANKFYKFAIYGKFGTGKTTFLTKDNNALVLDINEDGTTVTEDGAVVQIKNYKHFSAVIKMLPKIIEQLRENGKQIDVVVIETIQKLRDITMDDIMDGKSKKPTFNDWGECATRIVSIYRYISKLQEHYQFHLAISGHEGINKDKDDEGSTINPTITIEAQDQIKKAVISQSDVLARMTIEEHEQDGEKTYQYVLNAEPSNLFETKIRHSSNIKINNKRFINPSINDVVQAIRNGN

Compound: Nc1ncnc2c1ncn2[C@@H]1O[C@H](COP(=O)(O)OP(=O)(O)OP(O)(O)=S)[C@@H](O)[C@H]1O [ATPγS]
cryo-EM structure of the complex (3.35 Å) (Stl2-Sak4_52A complex): The nucleotide ATPγS is boxed and zoomed in on the left-hand side

Compound: SaPI2 IGR (stl-str intergenic region)
binding signal (fold reduction in affinity vs wild type) [1]: 30

stoichiometry N [2]: 17
Compound: Sak80α, full-length, untagged, co-expressed with Stl2 from pETDuet-1 (natural protein)

stoichiometry N [3]: 18
Compound: Sak80αΔCTD (truncated Sak80α with its CTD removed) (domain or fragment)

Compound: Stl2 (SaPI2-encoded transcriptional repressor Stl), wild type, C-terminally histidine tagged (natural protein)
stoichiometry N [4]: 2
